Reference: article PMC7895813

Assays:
[1] = target: Xenopus tropicalis MDM2 414-C (MDM2^f), GST-tag removed (Xenopus tropicalis (western clawed frog)); assay: crystal structure; free MDM2 RING domains (MDM2^z, MDM2^f); crystals grown at 19 °C by vapour diffusion
[2] = target: Xenopus tropicalis MDM2 414-C (MDM2^f), GST-tag removed (Xenopus tropicalis (western clawed frog)); assay: crystal structure; MDM2^f or MDM2^hGT mixed with UbcH5B–Ub at 1:1 ratio; crystals grown at 19 °C by vapour diffusion
[3] = target: Xenopus tropicalis MDM2 414-C (MDM2^f), GST-tag removed (Xenopus tropicalis (western clawed frog)); assay: SEC; cleaved MDM2 variants after removal of the GST-tag on HiLoad 16/600 Superdex 75; oligomeric state by comparison with molecular weight markers
[4] = target: opossum MDM2 421-C, GST-tag removed (Monodelphis domestica (opossum)); assay: SEC; GST-MDM2 variants (3 mg/mL) incubated with 1:10 TEV for 16-20 h at 4 °C; soluble fraction of the cleaved products on Superdex 75 Increase 10/300; comparison with molecular weight markers and SDS-PAGE

stoichiometry N [1] | stoichiometry N [2] | stoichiometry N [3] | stoichiometry N [4] | Substance
2 | 2 | 2 | – | Xenopus tropicalis MDM2 414-C (MDM2^f), GST-tag removed (domain or fragment)
– | – | – | 2 | opossum MDM2 421-C, GST-tag removed (domain or fragment)
